First the molecules themselves.
T1: TNF-like 1A (TL1A) (UniProt O95150 72-251)
T1 construct: Bought soluble TL1A; Biotinylated for yeast display, unlabelled in SPR and ELISA; also called TL1A cytokine
T1 sequence (looked up): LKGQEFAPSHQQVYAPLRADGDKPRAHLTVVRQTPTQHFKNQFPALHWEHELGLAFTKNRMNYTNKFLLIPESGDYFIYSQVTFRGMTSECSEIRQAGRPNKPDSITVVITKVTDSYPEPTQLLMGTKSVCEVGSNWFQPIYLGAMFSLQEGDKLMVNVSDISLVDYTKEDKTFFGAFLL

B1: DR3 variant having SEQ ID NO: 6, fused with human IgG1 Fc (Fc fusion)
chain: GGTRSPRCDCAGDFQKKIGLFCCRGCPAGHYLKAPCTEPCGNSTCLPCPQDTFLARENHHNSECARCQACDEQASQVALENCSAVADTRCGCKPGWFVECQVSPCVSSSPFYCQPCLDCGALHRHTRLLCSRRDTDCGTCLPGFYEHGDGCVSCPTSTLGSCPERCAAVCGWRQIEGRMDRSVECPPCPAPPVAGPSVFLFPPKPKDTLMISRTPEVTCVVVDVSHEDPEVKFNWYVDGVEVHNAKTKPREEQYNSTYRVVSVLTVLHQDWLNGKEYKCKVSNKGLPSSIEKTISKAKGQPREPQVYTLPPSREEMTKNQVSLTCLVKGFYPSDIAVEWESNGQPENNYKTTPPVLDSDGSFFLYSKLTVDKSRWQQGNVFSCSVMHEGLHNHYTQKSLSLSPGK
notes: Tested as secreted Fc fusion in HEK293 medium (ELISA screen); Linker and Fc as for m2
B2: DR3 variant having SEQ ID NO: 7, fused with human IgG1 Fc (Fc fusion)
chain: GGTRSPRCDCAGDFHKKIGLFCCRGCPAGHYLKAPCTKPCGNSTCLPCPQDTFLAWENHHNSECTRCQACDEQASQVALENCSAVADTRCGCKPGWFVECSVSQCVSSSPFYCQPCLDCGALHRHTRLLCSRRDTDCGTCLPGFYEHGDGCVSCPTSTLGSCPERCAAVCGWRQIEGRMDRSVECPPCPAPPVAGPSVFLFPPKPKDTLMISRTPEVTCVVVDVSHEDPEVKFNWYVDGVEVHNAKTKPREEQYNSTYRVVSVLTVLHQDWLNGKEYKCKVSNKGLPSSIEKTISKAKGQPREPQVYTLPPSREEMTKNQVSLTCLVKGFYPSDIAVEWESNGQPENNYKTTPPVLDSDGSFFLYSKLTVDKSRWQQGNVFSCSVMHEGLHNHYTQKSLSLSPGK
notes: as for B1
B3: DR3 variant having SEQ ID NO: 9, fused with human IgG1 Fc (Fc fusion)
chain: GGTRSPRCDCAGDFQKKIGLFCCRGCPAGHYLKAPCTEPCGNSTCLPCPQDTFLAWENHHESECARCQACDEQASQVALENCSAVADTRCGCEPGWFVECSVSPCVSSSPFYCQPCLDCGALHRHTRLPCSRRDTDCGTCLPGFYEHGDGCVSCPTSTLGSCPERCAAVCGWRQIEGRMDRSVECPPCPAPPVAGPSVFLFPPKPKDTLMISRTPEVTCVVVDVSHEDPEVKFNWYVDGVEVHNAKTKPREEQYNSTYRVVSVLTVLHQDWLNGKEYKCKVSNKGLPSSIEKTISKAKGQPREPQVYTLPPSREEMTKNQVSLTCLVKGFYPSDIAVEWESNGQPENNYKTTPPVLDSDGSFFLYSKLTVDKSRWQQGNVFSCSVMHEGLHNHYTQKSLSLSPGK
notes: as for B1
B4: WT DR3 extracellular domain fused with human IgG1 Fc (DR3-Fc WT) (Fc fusion)
chain: GGTRSPRCDCAGDFHKKIGLFCCRGCPAGHYLKAPCTEPCGNSTCLVCPQDTFLAWENHHNSECARCQACDEQASQVALENCSAVADTRCGCKPGWFVECQVSQCVSSSPFYCQPCLDCGALHRHTRLLCSRRDTDCGTCLPGFYEHGDGCVSCPTSTLGSCPERCAAVCGWRQIEGRMDRSVECPPCPAPPVAGPSVFLFPPKPKDTLMISRTPEVTCVVVDVSHEDPEVKFNWYVDGVEVHNAKTKPREEQYNSTYRVVSVLTVLHQDWLNGKEYKCKVSNKGLPSSIEKTISKAKGQPREPQVYTLPPSREEMTKNQVSLTCLVKGFYPSDIAVEWESNGQPENNYKTTPPVLDSDGSFFLYSKLTVDKSRWQQGNVFSCSVMHEGLHNHYTQKSLSLSPGK
notes: also called DR3 WT; soluble DR3 WT
B5: DR3 variant having SEQ ID NO: 5, fused with human IgG1 Fc (Fc fusion)
chain: GGTRSPRCDCAGDFHKKIGLFCCRGCPAGHYLKAPCTKPCGNSTCLPCPQDTFLARENHHNSECTRCQACDEQASQVALENCSAVADTRCGCAPGWFVECSVSQCVSSSPFYCQPCLDCGALHRHTRLPCSRRDTDCGTCLPGFYEHGDGCVSCPTSTLGSCPERCAAVCGWRQIEGRMDRSVECPPCPAPPVAGPSVFLFPPKPKDTLMISRTPEVTCVVVDVSHEDPEVKFNWYVDGVEVHNAKTKPREEQYNSTYRVVSVLTVLHQDWLNGKEYKCKVSNKGLPSSIEKTISKAKGQPREPQVYTLPPSREEMTKNQVSLTCLVKGFYPSDIAVEWESNGQPENNYKTTPPVLDSDGSFFLYSKLTVDKSRWQQGNVFSCSVMHEGLHNHYTQKSLSLSPGK
notes: Linker and Fc as for m2
B6: DR3 variant having SEQ ID NO: 3, fused with human IgG1 Fc (Fc fusion)
chain: GGTRSPRCDCAGDFHKKTGLFCCRGCPAGHYLKAPCTEPCGNSTCLPCPQGTFLAWENHHESECARCQACDEQASQVALENCSAVADTRCGCEPGWFVECQVSPCVSSSPFYCQPCLDCGALHRHTRLPCSRRDTDCGTCLPGFYEHGDGCVSCPTSTLGSCPERCAAVCGWRQIEGRMDRSVECPPCPAPPVAGPSVFLFPPKPKDTLMISRTPEVTCVVVDVSHEDPEVKFNWYVDGVEVHNAKTKPREEQYNSTYRVVSVLTVLHQDWLNGKEYKCKVSNKGLPSSIEKTISKAKGQPREPQVYTLPPSREEMTKNQVSLTCLVKGFYPSDIAVEWESNGQPENNYKTTPPVLDSDGSFFLYSKLTVDKSRWQQGNVFSCSVMHEGLHNHYTQKSLSLSPGK
notes: Linker and Fc as for m2
B7: DR3 variant having SEQ ID NO: 2, fused with human IgG1 Fc (Fc fusion)
chain: GGTRSPRCDCAGDFHKKYGLFCCRGCPAGHYLKAPCTEPCGNSTCLPCPQGTFLAWENHHNSECTRCQACDEQASQVALENCSAVADTRCGCAPGWFVECSVSQCVSSSPFYCQPCLDCGALHRHTRLPCSRRDTDCGTCLPGFYEHGDGCVSCPTSTLGSCPERCAAVCGWRQIEGRMDRSVECPPCPAPPVAGPSVFLFPPKPKDTLMISRTPEVTCVVVDVSHEDPEVKFNWYVDGVEVHNAKTKPREEQYNSTYRVVSVLTVLHQDWLNGKEYKCKVSNKGLPSSIEKTISKAKGQPREPQVYTLPPSREEMTKNQVSLTCLVKGFYPSDIAVEWESNGQPENNYKTTPPVLDSDGSFFLYSKLTVDKSRWQQGNVFSCSVMHEGLHNHYTQKSLSLSPGK
notes: Linker and Fc as for m2
B8: DR3 variant having SEQ ID NO: 4, fused with human IgG1 Fc (Fc fusion)
chain: GGTRSPRCDCAGDFHKKYGLFCCRGCPAGHYLKAPCTEPCGNSTCLVCPQGTFLAWENHHNSECARCQACDEQASQVALENCSAVADTRCGCEPGWFVECQVSQCVSSSPFYCQPCLDCGALHRHTRLPCSRRDTDCGTCLPGFYEHGDGCVSCPTSTLGSCPERCAAVCGWRQIEGRMDRSVECPPCPAPPVAGPSVFLFPPKPKDTLMISRTPEVTCVVVDVSHEDPEVKFNWYVDGVEVHNAKTKPREEQYNSTYRVVSVLTVLHQDWLNGKEYKCKVSNKGLPSSIEKTISKAKGQPREPQVYTLPPSREEMTKNQVSLTCLVKGFYPSDIAVEWESNGQPENNYKTTPPVLDSDGSFFLYSKLTVDKSRWQQGNVFSCSVMHEGLHNHYTQKSLSLSPGK
notes: Linker and Fc as for m2

Broadly, the Kd is a measure of binding affinity in units of concentration. Usually koff stands for the rate constant with which the complex falls apart. High values mean fast dissociation, low ones slow dissociation. The kon is the rate constant with which the complex forms. A high value points to fast association.

The first assay has as its target T1, TNF-like 1A (TL1A). In words: ELISA screen, HEK293 medium with secreted DR3-Fc on captured TL1A. Here is the method:
The plates were then washed with PBST and blocked by incubation with 150 μl of PBS supplemented with 3% skim milk for 1 hour. Following blocking, the plates were washed and incubated with 100 μl of media of HEK293T transfected with WT or DR3 mutants harvested 48 or 72 hours post transfection, ELISA plates were shaken for additional hour. DR3-Fc (R&D Systems) was added at a concentration of 2 μg/ml as a positive control, and PBS supplemented with 1% BSA served as a negative control. Plates were then washed with PBST, incubated with 100 μl of 0.05 μg/ml of biotinylated goat polyclonal α-DR3 antibodies (R&D Systems), followed by incubation with secondary peroxidase-conjugated streptavidin (Jackson, 1:10000 dilution). Finally, 100 μl of horseradish peroxidase (HRP) chromogenic 3,3′,5,5′-tetramethylbenzidine (TMB) substrate solution (Dako) were added. The reaction was stopped by the addition of 1 M sulfuric acid and recorded at 450 nm using a Tecan Infinite M200 plate reader.
To identify single DR3 mutant candidates with enhanced binding affinity for TL1A, the FACS-enriched library was sub-cloned into a mammalian vector containing leader peptide and fused with human IgG1 Fc. […] Thus, the mammalian based expression of soluble DR3 receptor offers the advantage of maintaining the native protein posttranslational modifications including glycosylation. To obtain high level of DR3 expression in mammalian cells, the leader peptide sequence was optimized (FIG. 4), transfection and expression conditions in HEK293F cells (see Experimental Procedures for details). To facilitate the screening of a relatively large number of DR3 mutants, cells were transfected in 24 plate format and the secreted DR3 was examined for TL1A interaction using ELISA. A fast and sensitive ELISA that is based on immobilizing TL1A on multi-well plates and detecting DR3 binding using specific antibodies was developed (FIG. 5).
(In general: In an ELISA, binding on a coated surface is turned into a signal by an enzyme label.)
Consider B1, for which the binding result is “binds”.

As to B2, the binding result is listed as “binds”.

As for B3, the binding result is given as “binds”.

In the next assay the target is T1, TNF-like 1A (TL1A). The assay is described as follows: SPR (ProteOn XPR36), DR3-Fc immobilized, TL1A as analyte. Here is the method: The affinity of TL1A binding to DR3 variants was determined by surface plasmon resonance (SPR) measurements on a ProteOn XPR36 (Bio-Rad) instrument. All samples were in PBS containing 2 mM of DTT. A GLC Chip was air-initialized and activated with EDC/S-NHS. 5 μg from each of the DR3 variants were diluted in acetate buffer, pH 5.5, and immobilized onto the chip as a reference and BSA was also loaded onto the chip. After blocking available unbound sites on the chip with ethanolamine, the chip was washed with HBST buffer and rotated. TL1A was run at 30 μl/min for 300 sec at various concentrations (100, 50, 25, 12.5 and 6.25 nM), followed by a 10-min dissociation step. Binding parameters were determined with the Langmuir single binding site model, using the Bio-Rad's proteOn Manager software V2.1.2.05.
Next, the TL1A binding affinity to the different DR3 variants was characterized using surface plasmon resonance (Table 3).
For B4, the Kd came to 44.9 nM, the koff came out at 0.00072 s⁻¹ and the kon stood at 16000 M⁻¹ s⁻¹.

B5: the “Fold increase in Affinity (against WT)” value worked out at 1.7 fold, the equilibrium dissociation constant (Kd) was 26.9 nM, the koff was 0.000643 s⁻¹ and the kon was found to be 23900 M⁻¹ s⁻¹.

As to B6, the “Fold increase in Affinity (against WT)” value was determined as 6.6 fold, binding was put at a Kd of 6.79 nM, the koff came to 0.000237 s⁻¹ and the kon stood at 34900 M⁻¹ s⁻¹.

With B7, the “Fold increase in Affinity (against WT)” value amounted to 5 fold, the dissociation constant (Kd) came to 8.26 nM, the koff worked out at 0.000351 s⁻¹ and the kon amounted to 42600 M⁻¹ s⁻¹.

With B8, the “Fold increase in Affinity (against WT)” value came out at 4.6 fold, the equilibrium dissociation constant (Kd) was determined as 9.83 nM, the koff worked out at 0.000357 s⁻¹ and the on-rate constant (kon) was 36300 M⁻¹ s⁻¹.
